# Measured values taken from patent CN101643510A.
# B1: 重组抗CD25人源化单克隆抗体的抗体 5G7 (antibody, V domains shown)
# VH: EVKLEESGGGLEQPGGSMKLSCVASGFTFSNYWMNWVRQSPDKGLEWVAQIRWKSDNYATHYAESVKGRFSISRDDSKSSVYLQMNNLRVEDSGIYYCTGGGSYVAHWGQGTLVTVSA
# VL: DIVLTQSPASLAVSLGQSVTVSCRASESVENYGTTLMQWYQQKPGQPPKLLIYGVSNVESGVPARFSGSGSGTDFTLNIHPVEEDDIAMYFCQQSRKVPWTFGGGTKLEIKR
# Tests used:
# [1] = target: CD25人源化单抗 (Zenapax, ROCHE公司产品); assay: sandwich ELISA, compared with the commercial anti-kappa capture antibody
# [2] = target: CD25人源化单抗 (Zenapax, ROCHE公司产品); assay: sandwich ELISA, 5G7 coated at 1 μg/ml, Zenapax titrated, HRP anti-human IgG Fc gamma detection
binder,measurement,setting,value
B1,灵敏度 fold against 市售抗体,[1],100 fold
same,灵敏度 (detection sensitivity),[2],0.01 ng/mL
